These results are taken from paper PMC9278407, “Structure and regulation of the nuclear exosome targeting complex guides RNA substrates to the exosome” (Molecular Cell, 2022).

For data set [1], the target named is T1, MTR4 (full length) (human, UniProt P42285 1-1042).
T1 construct: MTR4, human, full length; also called MTR4A; MTR4B; not shown: His6, N-terminal, cleaved; GST, N-terminal, cleaved
T1 sequence (looked up): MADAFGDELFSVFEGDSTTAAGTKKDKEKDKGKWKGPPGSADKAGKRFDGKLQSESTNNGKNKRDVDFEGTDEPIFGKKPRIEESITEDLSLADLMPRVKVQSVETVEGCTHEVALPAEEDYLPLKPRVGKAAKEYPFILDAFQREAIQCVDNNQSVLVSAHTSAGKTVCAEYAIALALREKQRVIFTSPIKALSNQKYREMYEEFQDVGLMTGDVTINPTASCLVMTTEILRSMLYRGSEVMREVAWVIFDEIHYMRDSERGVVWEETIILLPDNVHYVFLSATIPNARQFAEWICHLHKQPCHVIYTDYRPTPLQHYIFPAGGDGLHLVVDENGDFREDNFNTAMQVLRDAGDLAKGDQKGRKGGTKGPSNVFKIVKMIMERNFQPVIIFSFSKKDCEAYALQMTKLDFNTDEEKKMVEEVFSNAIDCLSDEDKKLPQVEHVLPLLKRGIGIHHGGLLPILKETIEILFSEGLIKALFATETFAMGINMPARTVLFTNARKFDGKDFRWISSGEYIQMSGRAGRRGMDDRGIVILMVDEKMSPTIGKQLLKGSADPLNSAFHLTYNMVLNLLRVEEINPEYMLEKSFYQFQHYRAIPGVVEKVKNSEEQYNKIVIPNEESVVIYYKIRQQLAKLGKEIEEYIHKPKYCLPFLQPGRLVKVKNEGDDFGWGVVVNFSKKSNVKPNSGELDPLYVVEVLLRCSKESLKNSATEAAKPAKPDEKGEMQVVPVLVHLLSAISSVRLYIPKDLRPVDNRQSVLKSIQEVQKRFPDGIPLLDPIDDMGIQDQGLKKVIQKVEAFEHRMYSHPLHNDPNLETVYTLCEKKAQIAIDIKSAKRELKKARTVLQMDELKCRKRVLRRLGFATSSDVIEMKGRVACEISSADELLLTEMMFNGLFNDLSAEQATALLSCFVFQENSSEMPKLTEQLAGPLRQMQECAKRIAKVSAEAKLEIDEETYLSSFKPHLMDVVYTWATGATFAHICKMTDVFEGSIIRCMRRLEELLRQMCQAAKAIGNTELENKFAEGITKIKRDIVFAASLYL
Description: cryo-EM structure; NEXT^L at 2 μM with equimolar 5'-hairpin-U60 RNA and 2 mM AMPPNP, 20 mM HEPES-NaOH pH 7.5, 50 mM NaCl, 2 mM DTT, 2 mM MgCl2; cross-linked with 0.03% glutaraldehyde. The conditions noted are these: both partners purified.

Data set [2] has as its target T2, eYFP-(GS)3-MTR4(75-1042) (human, UniProt P42285 75-1042).
T2 chain: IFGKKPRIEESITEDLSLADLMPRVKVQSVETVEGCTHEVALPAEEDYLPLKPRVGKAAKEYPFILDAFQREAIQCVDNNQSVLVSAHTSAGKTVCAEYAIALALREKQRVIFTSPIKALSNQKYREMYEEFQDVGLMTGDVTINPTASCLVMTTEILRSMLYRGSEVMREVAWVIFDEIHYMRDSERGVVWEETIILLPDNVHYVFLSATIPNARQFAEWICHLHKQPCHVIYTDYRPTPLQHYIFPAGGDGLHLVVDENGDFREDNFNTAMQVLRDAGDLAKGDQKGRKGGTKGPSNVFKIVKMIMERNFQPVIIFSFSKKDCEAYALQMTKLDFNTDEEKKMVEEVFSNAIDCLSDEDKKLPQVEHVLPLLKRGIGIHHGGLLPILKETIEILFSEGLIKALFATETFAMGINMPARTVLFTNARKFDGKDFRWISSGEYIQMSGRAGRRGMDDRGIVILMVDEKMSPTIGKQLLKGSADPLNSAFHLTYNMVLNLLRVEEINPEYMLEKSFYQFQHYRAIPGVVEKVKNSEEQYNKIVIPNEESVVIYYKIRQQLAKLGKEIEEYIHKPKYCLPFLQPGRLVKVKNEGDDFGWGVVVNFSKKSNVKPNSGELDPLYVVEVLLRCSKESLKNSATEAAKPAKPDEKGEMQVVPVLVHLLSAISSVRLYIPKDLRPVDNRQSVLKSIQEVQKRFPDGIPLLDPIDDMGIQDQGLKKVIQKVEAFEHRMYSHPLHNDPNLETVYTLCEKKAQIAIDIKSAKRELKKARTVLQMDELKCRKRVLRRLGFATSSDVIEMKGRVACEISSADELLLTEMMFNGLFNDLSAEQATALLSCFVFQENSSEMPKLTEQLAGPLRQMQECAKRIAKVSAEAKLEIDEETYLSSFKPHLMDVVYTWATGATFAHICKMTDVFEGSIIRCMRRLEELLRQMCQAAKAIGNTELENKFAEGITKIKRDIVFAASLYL
As to the kind of experiment: MST.

Data set [3] concerns the target T1, MTR4 (full length). Description: cryo-EM structure; NEXT^S at 15 μM with 1.2 molar excess RNA-U20 and 2 mM AMPPNP, 20 mM HEPES-NaOH pH 7.5, 150 mM NaCl, 2 mM DTT, 2 mM MgCl2; cross-linked with 1 mM BS3. The conditions noted are these: both partners purified.
Data set [4] concerns the molecule itself. The description is as above.
Data set [5] addresses T3, eYFP-(GS)3-MTR4(75-1042) (human, UniProt P42285 75-1042).
T3 construct: MTR4, human, residues 75-1042, joined to eYFP by a (GS)3 linker; also called eYFP-tagged MTR4; source: E. coli BL21 Star (DE3) pRARE, purified; not shown: eYFP, N-terminal, kept
T3 sequence (looked up): T2 chain
Description: MST; eYFP-(GS)3-MTR4(75-1042) fixed at 50 nM, increasing ZCCHC8/RBM7; 50 mM HEPES-NaOH pH 7.5, 150 mM NaCl, 2 mM DTT, 10% glycerol, 0.1% Pluronic F-127; room temperature; triplicates. The conditions noted are these: both partners purified.

The target in data set [6] is T1, MTR4 (full length). Description: SEC; pre-assembled complexes of full-length MTR4, RBM7(RRM) and N-terminally truncated ZCCHC8 constructs ending at 337; Superdex 200 Increase 3.2/300; 20 mM Hepes-NaOH pH 7.5, 150 mM NaCl, 2 mM DTT; 300 pmol in 30 μL injected; peak fractions on SDS-PAGE. The settings on record: both partners purified.
Data set [7] concerns the molecule itself. The description is as above.

By Kd is commonly meant the concentration at which binding is half-saturated. Read a low Kd as a tighter complex. By stoichiometry N is commonly meant the number of molecules, sites or subunits per partner or assembly.

B1: ZCCHC8 deletion mutant Δ416-506 (natural protein, human)
chain: MAAEVYFGDLELFEPFDHPEESIPKPVHTRFKDDDGDEEDENGVGDAELRERLRQCEETIEQLRAENQELKRKLNILTRPSGILVNDTKLDGPILQILFMNNAISKQYHQEIEEFVSNLVKRFEEQQKNDVEKTSFNLLPQPSSIVLEEDHKVEESCAIKNNKEAFSVVGSVLYFTNFCLDKLGQPLLNENPQLSEGWEIPKYHQVFSHIVSLEGQEIQVKAKRPKPHCFNCGSEEHQMKDCPMPRNAARISEKRKEYMDACGEANNQNFQQRYHAEEVEERFGRFKPGVISEELQDALGVTDKSLPPFIYRMRQLGYPPGWLKEAELENSGLALYDGKDGTDGETEVGEIQQNKSVTYDLSKLVNYPGFNISTPRGIPDEWRIFGSIPMQACQQKDVFANYLTSNFQAPGVKSGSGAVDEDALTLEELEEQQRRIWAALEQAESVNSDSDVPVDTPLTGNSVASSPCPNELDLPVPEGKTSEKQTLDEPEVPEIFTKKSEAGHASSPDSEVTSLCQKEKAELAPVNTEGALLDNGSVVPNCDISNGGSQKLFPADTSPSTATKIHSPIPDMSKFATGITPFEFENMAESTGMYLRIRSLLKNSPRNQQKNKKASE
notes: ZCCHC8, human, deletion mutant lacking residues 416-506 but still including the C-terminal domain; Construct adapted from Puno and Lima (2018); also called ZCCHC8^L; hZCCHC8(Δ416-506); source: E. coli BL21 Star (DE3) pRARE, co-expressed and co-purified with RBM7(1-98); not shown: His6, N-terminal, cleaved; SUMO, N-terminal, cleaved
Turning to B1, the binding result with MTR4 (full length) [1] is on record as “binds”.

B2: dimeric ZCCHC8(41-337)/RBM7(RRM) (complex)
chain 1: ENGVGDAELRERLRQCEETIEQLRAENQELKRKLNILTRPSGILVNDTKLDGPILQILFMNNAISKQYHQEIEEFVSNLVKRFEEQQKNDVEKTSFNLLPQPSSIVLEEDHKVEESCAIKNNKEAFSVVGSVLYFTNFCLDKLGQPLLNENPQLSEGWEIPKYHQVFSHIVSLEGQEIQVKAKRPKPHCFNCGSEEHQMKDCPMPRNAARISEKRKEYMDACGEANNQNFQQRYHAEEVEERFGRFKPGVISEELQDALGVTDKSLPPFIYRMRQLGYPPGWLKEAELENSGLALYD
chain 2: MGAAAAEADRTLFVGNLETKVTEELLFELFHQAGPVIKVKIPKDKDGKPKQFAFVNFKHEVSVPYAMNLLNGIKLYGRPIKIQFRSGSSHAPQDVSLS
Consider B2, for which, in the data set with eYFP-(GS)3-MTR4(75-1042) [2], the Kd was 120 nM.

B3: ZCCHC8 (residues 41-337) (domain or fragment, human, UniProt Q6NZY4 41-337, looked up)
chain: B2 chain 1
notes: also called ZCCHC8^S; not shown: His6, N-terminal, cleaved; GST, N-terminal, cleaved
Consider B3, for which the binding result with MTR4 (full length) [3] is on record as “binds”. Further, the “stoichiometry N” value in data set [4] was 2.

B4: monomeric ZCCHC8(177-337)/RBM7(RRM) (complex, human)
chain 1: NFCLDKLGQPLLNENPQLSEGWEIPKYHQVFSHIVSLEGQEIQVKAKRPKPHCFNCGSEEHQMKDCPMPRNAARISEKRKEYMDACGEANNQNFQQRYHAEEVEERFGRFKPGVISEELQDALGVTDKSLPPFIYRMRQLGYPPGWLKEAELENSGLALYD
chain 2: B2 chain 2
notes: RBM7, human, residues 1-98 with the RRM domain; also called monomeric ZCCHC8-RBM7 unit; source: E. coli BL21 Star (DE3) pRARE, co-expressed and co-purified; not shown: His6, N-terminal, cleaved; GST, N-terminal, cleaved; Z tag or SUMO, N-terminal, cleaved; copies: 1 + 1
In the data set with eYFP-(GS)3-MTR4(75-1042) [2], B4 gave a Kd of 540 nM. Besides, in the data set with eYFP-(GS)3-MTR4(75-1042) [5], the binding result is “binds”.

B5: ZCCHC8 (residues 177-337) (domain or fragment, human, UniProt Q6NZY4 177-337, looked up)
chain: B4 chain 1
notes: source: E. coli BL21 Star (DE3) pRARE, co-expressed and co-purified with RBM7(1-98); not shown: His6, N-terminal, cleaved; GST, N-terminal, cleaved
For the molecule B5, the binding result with MTR4 (full length) [6] is listed as “binds”.

B6: ZCCHC8 (residues 91-337) (domain or fragment, human, UniProt Q6NZY4 91-337, looked up)
chain: DGPILQILFMNNAISKQYHQEIEEFVSNLVKRFEEQQKNDVEKTSFNLLPQPSSIVLEEDHKVEESCAIKNNKEAFSVVGSVLYFTNFCLDKLGQPLLNENPQLSEGWEIPKYHQVFSHIVSLEGQEIQVKAKRPKPHCFNCGSEEHQMKDCPMPRNAARISEKRKEYMDACGEANNQNFQQRYHAEEVEERFGRFKPGVISEELQDALGVTDKSLPPFIYRMRQLGYPPGWLKEAELENSGLALYD
notes: source: E. coli BL21 Star (DE3) pRARE, co-expressed and co-purified with RBM7(1-98); not shown: His6, N-terminal, cleaved; GST or SUMO, N-terminal, cleaved
Take B6: the binding result (in the data set with MTR4 (full length) [6]; in data set [7]) was “binds” each time.
